The record followed here is patent US20110123544A1 (published 2011).

Read-outs that look alike come from different tables or passages of the source.

Experiment in all cases: BIAcore
The target in test [1] is T1, recombinant human IL-12 (rhIL-12) (human, UniProt P29459 23-219; P29460 23-328).
T1 chain 1: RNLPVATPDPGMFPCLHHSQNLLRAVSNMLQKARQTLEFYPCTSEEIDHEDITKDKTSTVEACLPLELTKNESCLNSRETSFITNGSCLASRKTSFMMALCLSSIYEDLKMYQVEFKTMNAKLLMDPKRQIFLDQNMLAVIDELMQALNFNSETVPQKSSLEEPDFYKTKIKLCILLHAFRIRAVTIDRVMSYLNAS
T1 chain 2: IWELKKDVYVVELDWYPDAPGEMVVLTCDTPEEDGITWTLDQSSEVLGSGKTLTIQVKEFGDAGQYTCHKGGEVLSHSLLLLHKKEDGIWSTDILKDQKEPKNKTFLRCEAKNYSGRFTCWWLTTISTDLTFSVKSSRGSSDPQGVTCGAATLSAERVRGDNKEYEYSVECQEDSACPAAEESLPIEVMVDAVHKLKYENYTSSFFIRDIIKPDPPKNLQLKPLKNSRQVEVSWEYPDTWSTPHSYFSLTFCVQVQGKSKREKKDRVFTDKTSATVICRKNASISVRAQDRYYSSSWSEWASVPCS

Test [2] has as its target T1, recombinant human IL-12 (rhIL-12).
Test [3] deals with T2, recombinant human interleukin 12 (p40/p35 heterodimer) (human, UniProt P29460 23-328; P29459 23-219).
T2 chain 1: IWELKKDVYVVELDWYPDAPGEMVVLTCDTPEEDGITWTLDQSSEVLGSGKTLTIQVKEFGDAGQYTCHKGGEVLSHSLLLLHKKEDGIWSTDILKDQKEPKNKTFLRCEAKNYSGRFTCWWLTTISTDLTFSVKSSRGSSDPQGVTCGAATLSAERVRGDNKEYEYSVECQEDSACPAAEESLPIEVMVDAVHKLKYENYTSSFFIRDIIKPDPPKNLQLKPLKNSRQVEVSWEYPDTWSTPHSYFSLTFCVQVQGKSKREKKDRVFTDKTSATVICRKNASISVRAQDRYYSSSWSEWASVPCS
T2 chain 2: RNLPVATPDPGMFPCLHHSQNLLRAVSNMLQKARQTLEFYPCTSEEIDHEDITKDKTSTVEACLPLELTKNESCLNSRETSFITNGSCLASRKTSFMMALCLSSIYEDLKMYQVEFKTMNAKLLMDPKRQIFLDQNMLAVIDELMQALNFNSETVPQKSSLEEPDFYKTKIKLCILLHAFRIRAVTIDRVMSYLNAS

One may read the koff as the rate constant with which the complex falls apart. As to SGGRSNIGSNLVK [Y61 L32 L], the dissociation rate constant (koff) in test [1] turned out to be 0.00215 s⁻¹.
Consider QSYDMGTHPALL [Y61 L93 M], for which the koff in test [2] came to 0.000275 s⁻¹.
Still for that read-out and setting: as for QSYDRITHPALL [Y61 L94 I], the figure is 0.000276 s⁻¹.
Still for that read-out and setting: as for QSYDYGTHPALL [Y61 L93 Y], the figure is 0.000335 s⁻¹.
On to QSYDRRTHPALL [Y61 L94 R], for which, in test [2], the koff came out at 0.000231 s⁻¹.
For the molecule SGGRSNIGYNTVK [Y61 L30 Y], the off-rate constant (koff) in test [1] stood at 0.000483 s⁻¹.
Consider SGGRSNIGCNTVK [Y61 L30 C], for which the koff in test [1] amounted to 0.000186 s⁻¹.
As for QSYDRTTHPALL [Y61 L94 T], in test [2], the koff amounted to 0.000305 s⁻¹.
For SGGRSNIGSNYVK [Y61 L32 Y], the dissociation rate constant (koff) in test [1] was determined as 0.000213 s⁻¹.
In the case of QSYFRGTHPALL [Y61 L92 F], the off-rate constant (koff) in test [2] was 0.000449 s⁻¹.
For SGGRSNIGSNQVK [Y61 L32 Q], in test [1], the koff turned out to be 0.00247 s⁻¹.
Take QSYDVGTHPALL [Y61 L93 V]: the koff in test [2] came out at 0.000269 s⁻¹.
Turning to SGGRSNIGSYTVK [Y61 L31 Y], the dissociation rate constant (koff) in test [1] was 0.000357 s⁻¹.
For SGGRSNIGSNSVK [Y61 L32 S], in test [1], the dissociation rate constant (koff) came out at 0.00191 s⁻¹.
For the molecule QSYDIGTHPALL [Y61 L93 I], in test [2], the off-rate constant (koff) turned out to be 0.000295 s⁻¹.
On the same count and under the same terms, as for QSYSRGTHPALL [Y61 L92 S], the figure is 0.000307 s⁻¹.
For the molecule SGGRSNIGSITVK [Y61 L31 I], in test [1], the koff is 9.7e-05 s⁻¹.
For HGWHDN [Y61 H97 W], the koff in test [3] turned out to be 0.00239 s⁻¹.
On to QSYDLGTHPALL [Y61 L93 L], for which the koff in test [2] stood at 0.0003 s⁻¹.
Still for that read-out and setting: as for QSYDAGTHPALL [Y61 L93 A], the figure is 0.00031 s⁻¹.
Turning to SGGRSNIGSMTVK [Y61 L31 M], in test [1], the koff amounted to 0.000174 s⁻¹.
Consider SGGRSNIGSNNVK [Y61 L32 N], for which the off-rate (koff) in test [1] came to 0.00197 s⁻¹.
In the case of QSYDRWTHPALL [Y61 L94 W], the off-rate (koff) in test [2] amounted to 0.000293 s⁻¹.
Turning to QSYDGGTHPALL [Y61 L93 G], in test [2], the koff was found to be 0.000392 s⁻¹.
Same read-out and setting: as for QSYDRQTHPALL [Y61 L94 Q], the figure is 0.00025 s⁻¹; as for QSYDRCTHPALL [Y61 L94 C], 0.00052 s⁻¹; as for QSYQRGTHPALL [Y61 L92 Q], 0.000427 s⁻¹.
Turning to SGGRSNIGDNTVK [Y61 L30 D], in test [1], the koff was determined as 0.00022 s⁻¹.
As for QSYDSGTHPALL [Y61 L93 S], the off-rate constant (koff) in test [2] came out at 0.000341 s⁻¹.
Same read-out and setting: as for QSYTRGTHPALL [Y61 L92 T], the figure is 0.000408 s⁻¹.
Take SGGRSNIGNNTVK [Y61 L30 N]: the off-rate (koff) in test [1] worked out at 0.000166 s⁻¹.
Take QSYDWGTHPALL [Y61 L93 W]: the off-rate constant (koff) in test [2] turned out to be 0.000349 s⁻¹.
Consider SGGRSNIGSNPVK [Y61 L32 P], for which, in test [1], the koff is 0.000424 s⁻¹.
For QSYDTGTHPALL [Y61 L93 T], the off-rate (koff) in test [2] came out at 0.000316 s⁻¹.
Still for that read-out and setting: as for QSYNRGTHPALL [Y61 L92 N], the figure is 0.000347 s⁻¹; as for QSYDRVTHPALL [Y61 L94 V], 0.000351 s⁻¹; as for QSYDPGTHPALL [Y61 L93 P], 0.000349 s⁻¹.
Turning to QSYDNGTHPALL [Y61 L93 N], the koff in test [2] came out at 0.000316 s⁻¹.
Still for that read-out and setting: as for QSYCRGTHPALL [Y61 L92 C], the figure is 0.000453 s⁻¹; as for QSYDDGTHPALL [Y61 L93 D], 0.000343 s⁻¹; as for QSYDRSTHPALL [Y61 L94 S], 0.000287 s⁻¹.
In the case of SGGRSNIGSGTVK [Y61 L31 G], the off-rate (koff) in test [1] worked out at 0.000366 s⁻¹.
QSYDQGTHPALL [Y61 L93 Q]: the off-rate (koff) in test [2] was 0.0003 s⁻¹.
Consider SGGRSNIGSDTVK [Y61 L31 D], for which, in test [1], the dissociation rate constant (koff) was 0.00058 s⁻¹.
The same measure, in the same setting: as for SGGRSNIGTNTVK [Y61 L30 T], the figure is 0.000226 s⁻¹.
Regarding QSYYRGTHPALL [Y61 L92 Y], the koff in test [2] came to 0.000511 s⁻¹.
Still for that read-out and setting: as for QSYIRGTHPALL [Y61 L92 I], the figure is 0.000618 s⁻¹; as for QSYDRLTHPALL [Y61 L94 L], 0.000244 s⁻¹.
For SGGRSNIGSNVVK [Y61 L32 V], the off-rate constant (koff) in test [1] worked out at 0.00164 s⁻¹.
In the case of QSYGRGTHPALL [Y61 L92 G], the dissociation rate constant (koff) in test [2] stood at 0.000349 s⁻¹.
As to SGGRSNIGSHTVK [Y61 L31 H], in test [1], the koff came out at 0.000315 s⁻¹.
Same read-out and setting: as for SGGRSNIGSNKVK [Y61 L32 K], the figure is 0.000318 s⁻¹; as for SGGRSNIGSNCVK [Y61 L32 C], 0.00381 s⁻¹.
With QSYDRPTHPALL [Y61 L94 P], the dissociation rate constant (koff) in test [2] is 0.000332 s⁻¹.
With SGGRSNIGSNAVK [Y61 L32 A], the koff in test [1] was 0.00191 s⁻¹.
In the case of QSYLRGTHPALL [Y61 L92 L], the dissociation rate constant (koff) in test [2] stood at 0.000728 s⁻¹.
In the case of QSYDRHTHPALL [Y61 L94 H], the off-rate constant (koff) in test [2] worked out at 0.000187 s⁻¹.
As for QSYWRGTHPALL [Y61 L92 W], the koff in test [2] was 0.00072 s⁻¹.
Same read-out and setting: as for QSYDRDTHPALL [Y61 L94 D], the figure is 0.000253 s⁻¹; as for QSYARGTHPALL [Y61 L92 A], 0.000357 s⁻¹.
The same measure, in the same setting: as for QSYDRATHPALL [Y61 L94 A], the figure is 0.000526 s⁻¹.
On the same count and under the same terms, as for QSYDCGTHPALL [Y61 L93 C], the figure is 0.00032 s⁻¹.
